For 38 molecules, binding result and IC50 results are on record in patent US20190177366A1 (published 2019).

For assay [1], the target named is T1, proprotein convertase subtilisin/kexin type 9 (PCSK9) (human, UniProt Q8NBP7 31-152).
T1 construct: domain: prodomain; Recombinant; tag not written as a part; also called rec.PCSK9; His-PCSK9
Nature of the assay: phage spot ELISA. Background: ELISA stands for enzyme-linked immunosorbent assay.

For assay [2], the target named is T2, His-tagged, full-length PCSK9 (human, UniProt A8T644 31-152; Q8NBP7 153-692).
T2 construct: Target protein of the PCSK9/EGF(A) TR-FRET assay (10 nM); also called His-PCSK9; proprotein convertase subtilisin/kexin type 9
T2 sequence (A8T644 31-152 limits assumed, chain 1 of 2): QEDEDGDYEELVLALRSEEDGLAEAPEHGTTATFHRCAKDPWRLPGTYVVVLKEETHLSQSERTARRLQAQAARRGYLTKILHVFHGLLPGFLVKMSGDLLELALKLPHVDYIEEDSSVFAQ
T2 sequence (A8T644 other isoform, or with tags, fused parts or gaps limits assumed, chain 2 of 2): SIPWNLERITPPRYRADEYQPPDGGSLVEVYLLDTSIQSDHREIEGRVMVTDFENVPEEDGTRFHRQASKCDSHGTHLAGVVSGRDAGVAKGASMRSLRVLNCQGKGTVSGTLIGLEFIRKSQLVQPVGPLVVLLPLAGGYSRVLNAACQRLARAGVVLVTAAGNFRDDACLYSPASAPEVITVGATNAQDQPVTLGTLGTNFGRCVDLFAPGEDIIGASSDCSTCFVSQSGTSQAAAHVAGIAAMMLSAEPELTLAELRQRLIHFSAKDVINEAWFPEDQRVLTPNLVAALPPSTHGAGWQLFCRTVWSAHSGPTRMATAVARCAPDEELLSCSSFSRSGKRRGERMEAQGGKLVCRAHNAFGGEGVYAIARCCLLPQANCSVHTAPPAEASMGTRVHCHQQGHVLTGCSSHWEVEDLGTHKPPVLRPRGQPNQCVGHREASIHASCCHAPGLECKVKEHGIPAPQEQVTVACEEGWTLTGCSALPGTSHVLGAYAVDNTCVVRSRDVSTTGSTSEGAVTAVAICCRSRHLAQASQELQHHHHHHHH
Kind of assay: TR-FRET competition; competitor EGF(A)-Fc on His-PCSK9. Background: TR-FRET usually uses a lanthanide donor and a delayed reading to cut background.

Bridge positions count the residues as written; N and C are the ends. Ends that are not written are not given here. Some results are limits rather than exact numbers.

T1 sequence (Q8NBP7 31-152 limits assumed, chain 1 of 2): as the sequence (A8T644 31-152 limits assumed, chain 1 of 2) above
T1 sequence (Q8NBP7 153-692 limits assumed, chain 2 of 2): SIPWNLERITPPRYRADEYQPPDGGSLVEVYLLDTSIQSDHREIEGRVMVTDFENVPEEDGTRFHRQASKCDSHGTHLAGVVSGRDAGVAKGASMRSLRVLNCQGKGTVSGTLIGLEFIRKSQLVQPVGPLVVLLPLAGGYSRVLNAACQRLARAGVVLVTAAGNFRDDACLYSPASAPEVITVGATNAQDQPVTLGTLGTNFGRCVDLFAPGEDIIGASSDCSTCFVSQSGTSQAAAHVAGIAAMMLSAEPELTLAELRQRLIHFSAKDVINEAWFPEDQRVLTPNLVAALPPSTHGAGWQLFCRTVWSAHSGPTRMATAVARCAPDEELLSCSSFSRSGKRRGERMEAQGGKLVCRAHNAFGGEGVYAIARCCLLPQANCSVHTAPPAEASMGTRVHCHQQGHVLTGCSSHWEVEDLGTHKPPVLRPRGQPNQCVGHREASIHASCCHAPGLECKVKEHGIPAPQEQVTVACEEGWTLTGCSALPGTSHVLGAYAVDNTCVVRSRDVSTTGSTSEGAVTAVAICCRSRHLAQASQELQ

B1: SEQ ID NO 369 (peptide)
chain: SGGCVKYRGSVSCQESKT
modifications: not fully specified (bridges); cysteine pairing not given here
notes: phage clone without anchor
For the molecule B1, the binding result in assay [1] is reported as “binds”.

B2: SEQ ID NO 390 (peptide)
chain: SGGSMPWNLERIFALH
On to B2, for which the binding result in assay [1] was “binds”.

B3: SEQ ID NO 378 (peptide)
chain: SGVCSDHYIGGKEVRC
modifications: not fully specified (bridges); cysteine pairing not given here
notes: phage clone without anchor
Take B3: the binding result in assay [1] is “binds”.

B4: Compound 29 (peptide)
peptide: Ac-SGCFIPWNLQRIGLLC-NH2
modifications: disulfide 3-16 (inferred)
For the molecule B4, the IC50 in assay [2] was above 50 µM.

B5: SEQ ID NO 385 (peptide)
chain: SGDFIPWNLVRIGLLR
On to B5, for which the binding result in assay [1] was “binds”.

B6: SEQ ID NO 388 (peptide)
chain: SGACVKPCIAGNIIR
modifications: not fully specified (bridges); cysteine pairing not given here
B6: in assay [1], the binding result is “binds”.

B7: SEQ ID NO 384 (peptide)
chain: SGGACPWNLERIGLSC
For the molecule B7, the binding result in assay [1] was “binds”.

B8: SEQ ID NO 362 (peptide)
chain: TAFTSWEEYLDWVGSGRCESKGWANTCVSE
notes: phage clone
In the case of B8, the binding result in assay [1] is recorded as “binds”.

B9: Compound 31 (peptide)
peptide: Ac-CFIPWNLQRIGLLC-NH2
modifications: disulfide 1-14 (inferred)
As for B9, in assay [2], the IC50 is above 50 µM.

B10: SEQ ID NO 361 (peptide)
chain: TAFTSWEEYLDWVGSGPTSGLTPS
notes: phage clone
Consider B10, for which the binding result in assay [1] is given as “binds”.

B11: SEQ ID NO 375 (peptide)
chain: SGLAPTVSDS
notes: phage clone without anchor
Regarding B11, the binding result in assay [1] is “binds”.

B12: SEQ ID NO 387 (peptide)
chain: SGRCLNHLISGNMNSC
modifications: not fully specified (bridges); cysteine pairing not given here
In the case of B12, the binding result in assay [1] is “binds”.

B13: SEQ ID NO 383 (peptide)
chain: SGCFIPWNLQRIGLLC
With B13, the binding result in assay [1] is reported as “binds”.

B14: SEQ ID NO 373 (peptide)
chain: SGCWTYLRGGCSVT
modifications: not fully specified (bridges); cysteine pairing not given here
notes: phage clone without anchor
As to B14, the binding result in assay [1] is “binds”.

B15: SEQ ID NO 372 (peptide)
chain: SGSYRGAWSVFGGSTD
notes: phage clone without anchor
As for B15, the binding result in assay [1] was “binds”.

B16: SEQ ID NO 371 (peptide)
chain: SGACLNHFVSGNMIRC
modifications: not fully specified (bridges); cysteine pairing not given here
notes: phage clone without anchor
Regarding B16, the binding result in assay [1] is “binds”.

B17: SEQ ID NO 368 (peptide)
chain: SGMVYVDRGVRVFT
notes: phage clone without anchor
Turning to B17, the binding result in assay [1] is recorded as “binds”.

B18: SEQ ID NO 377 (peptide)
chain: SGAGKLDLSG
notes: phage clone without anchor
In the case of B18, the binding result in assay [1] is “binds”.

B19: SEQ ID NO 367 (peptide)
chain: SGNCWSSLRGICENLG
modifications: not fully specified (bridges); cysteine pairing not given here
notes: phage clone without anchor
On to B19, for which, in assay [1], the binding result is “binds”.

B20: SEQ ID NO 374 (peptide)
chain: SGTPEMPAML
notes: phage clone without anchor
B20: the binding result in assay [1] is on record as “binds”.

B21: SEQ ID NO 366 (peptide)
chain: SGPRTYLRGLVD
notes: phage clone without anchor
For the molecule B21, the binding result in assay [1] is on record as “binds”.

B22: Compound 32 (peptide)
peptide: Ac-CRLPWNLQRIGLPC-NH2
modifications: disulfide 1-14 (inferred)
Take B22: the IC50 in assay [2] is above 50 µM.

B23: Compound 71 (peptide)
peptide: Ac-CRLPWNLQRAGLPC-NH2
modifications: disulfide 1-14
SMILES: CC(=O)N[C@H]1CSSC[C@@H](C(N)=O)NC(=O)[C@@H]2CCCN2C(=O)[C@H](CC(C)C)NC(=O)CNC(=O)[C@H](C)NC(=O)[C@H](CCCNC(=N)N)NC(=O)[C@H](CCC(N)=O)NC(=O)[C@H](CC(C)C)NC(=O)[C@H](CC(N)=O)NC(=O)[C@H](Cc2c[nH]c3ccccc23)NC(=O)[C@@H]2CCCN2C(=O)[C@H](CC(C)C)NC(=O)[C@H](CCCNC(=N)N)NC1=O
In assay [2], B23 returned an IC50 above 50 µM.

B24: Compound 69 (peptide)
peptide: Ac-CRLPWNLQRIGAPC-NH2
modifications: disulfide 1-14
SMILES: CC[C@H](C)[C@@H]1NC(=O)[C@H](CCCNC(=N)N)NC(=O)[C@H](CCC(N)=O)NC(=O)[C@H](CC(C)C)NC(=O)[C@H](CC(N)=O)NC(=O)[C@H](Cc2c[nH]c3ccccc23)NC(=O)[C@@H]2CCCN2C(=O)[C@H](CC(C)C)NC(=O)[C@H](CCCNC(=N)N)NC(=O)[C@@H](NC(C)=O)CSSC[C@@H](C(N)=O)NC(=O)[C@@H]2CCCN2C(=O)[C@H](C)NC(=O)CNC1=O
In assay [2], B24 gave an IC50 above 50 µM.

B25: Compound 68 (peptide)
peptide: Ac-CRLPWNLQRIGLAC-NH2
modifications: disulfide 1-14
SMILES: CC[C@H](C)[C@@H]1NC(=O)[C@H](CCCNC(=N)N)NC(=O)[C@H](CCC(N)=O)NC(=O)[C@H](CC(C)C)NC(=O)[C@H](CC(N)=O)NC(=O)[C@H](Cc2c[nH]c3ccccc23)NC(=O)[C@@H]2CCCN2C(=O)[C@H](CC(C)C)NC(=O)[C@H](CCCNC(=N)N)NC(=O)[C@@H](NC(C)=O)CSSC[C@@H](C(N)=O)NC(=O)[C@H](C)NC(=O)[C@H](CC(C)C)NC(=O)CNC1=O
As to B25, in assay [2], the IC50 was above 50 µM.

B26: Compound 72 (peptide)
peptide: Ac-CRLPWNLQAIGLPC-NH2
modifications: disulfide 1-14
SMILES: CC[C@H](C)[C@@H]1NC(=O)[C@H](C)NC(=O)[C@H](CCC(N)=O)NC(=O)[C@H](CC(C)C)NC(=O)[C@H](CC(N)=O)NC(=O)[C@H](Cc2c[nH]c3ccccc23)NC(=O)[C@@H]2CCCN2C(=O)[C@H](CC(C)C)NC(=O)[C@H](CCCNC(=N)N)NC(=O)[C@@H](NC(C)=O)CSSC[C@@H](C(N)=O)NC(=O)[C@@H]2CCCN2C(=O)[C@H](CC(C)C)NC(=O)CNC1=O
Molecule B26 returned an IC50 in assay [2] above 50 µM.

B27: Compound 70 (peptide)
peptide: Ac-CRLPWNLQRIALPC-NH2
modifications: disulfide 1-14
SMILES: CC[C@H](C)[C@@H]1NC(=O)[C@H](CCCNC(=N)N)NC(=O)[C@H](CCC(N)=O)NC(=O)[C@H](CC(C)C)NC(=O)[C@H](CC(N)=O)NC(=O)[C@H](Cc2c[nH]c3ccccc23)NC(=O)[C@@H]2CCCN2C(=O)[C@H](CC(C)C)NC(=O)[C@H](CCCNC(=N)N)NC(=O)[C@@H](NC(C)=O)CSSC[C@@H](C(N)=O)NC(=O)[C@@H]2CCCN2C(=O)[C@H](CC(C)C)NC(=O)[C@H](C)NC1=O
In assay [2], B27 showed an IC50 above 50 µM.

B28: Compound 67 (peptide)
peptide: Ac-CRLPWNLKRIGLPC-NH2
modifications: disulfide 1-14
SMILES: CC[C@H](C)[C@@H]1NC(=O)[C@H](CCCNC(=N)N)NC(=O)[C@H](CCCCN)NC(=O)[C@H](CC(C)C)NC(=O)[C@H](CC(N)=O)NC(=O)[C@H](Cc2c[nH]c3ccccc23)NC(=O)[C@@H]2CCCN2C(=O)[C@H](CC(C)C)NC(=O)[C@H](CCCNC(=N)N)NC(=O)[C@@H](NC(C)=O)CSSC[C@@H](C(N)=O)NC(=O)[C@@H]2CCCN2C(=O)[C@H](CC(C)C)NC(=O)CNC1=O
Take B28: the IC50 in assay [2] is above 50 µM.

B29: SEQ ID NO 363 (peptide)
chain: TAFTSWEEYLDWVGSGQVTSLPQA
notes: phage clone
As for B29, the binding result in assay [1] is given as “binds”.

B30: SEQ ID NO 382 (peptide)
chain: SGGSIPWNLERITPPR
notes: phage clone without anchor
As for B30, the binding result in assay [1] is on record as “binds”.

B31: SEQ ID NO 379 (peptide)
chain: SGNALWNHDRLT
notes: phage clone without anchor
Regarding B31, the binding result in assay [1] is “binds”.

B32: SEQ ID NO 370 (peptide)
chain: SGEHQFYSYRGVDVYR
notes: phage clone without anchor
As for B32, in assay [1], the binding result was “binds”.

B33: Compound 30 (peptide)
peptide: Ac-SGCRLPWNLQRIGLPC-NH2
modifications: disulfide 3-16 (inferred)
Turning to B33, the IC50 in assay [2] was above 50 µM.

B34: SEQ ID NO 386 (peptide)
chain: SGCRLPWNLQRIGLPC
Take B34: in assay [1], the binding result is given as “binds”.

B35: SEQ ID NO 391 (peptide)
chain: SGCSDLWNLARIYPMC
modifications: not fully specified (bridges); cysteine pairing not given here
In the case of B35, the binding result in assay [1] was “binds”.

B36: SEQ ID NO 376 (peptide)
chain: SGDTRSQLSH
notes: phage clone without anchor
On to B36, for which the binding result in assay [1] is “binds”.

B37: SEQ ID NO 381 (peptide)
chain: SGHASKGMVLSG
notes: phage clone without anchor
As for B37, in assay [1], the binding result was “binds”.

B38: SEQ ID NO 380 (peptide)
chain: SGRNGSGYINRGIEIW
notes: phage clone without anchor
Turning to B38, in assay [1], the binding result is recorded as “binds”.

Usually IC50 stands for the concentration that gives 50% inhibition. Low values mean greater potency in that assay, high ones weaker potency in that assay.
